Positions count from the first letter of the chain named. Names may count otherwise.
Columns and labels:
Type in all cases: biochemical
[1] = Test for malate semialdehyde reductase activity; conditions: for Activity on malate semialdehyde (cofactor NADPH): 0.24 mM NADPH
Description: Test for Malate Semialdehyde Reductase Activity: Reaction: (L)-Malate semialdehyde+NAD(P)H→(L)-2,4-dihydroxybutyric acid+NAD(P)
The assay mixture contained 200 mM Hepes (pH 7.5), 50 mM KCl, 5 mM MgCl2, 0.24 mM NADH or NADPH, and appropriate amounts of purified enzyme. Reactions were started by adding 10 mM (L)-malate semialdehyde (malate semialdehyde was prepared freshly for each test, see Example 4). Enzymatic assays were carried out at 30° C. in 96-well flat bottomed microtiter plates in a final volume of 250 μL. The reactions were followed by the characteristic absorption of NAD(P)H at 340 nm in a microplate reader (BioRad 680XR).

[2] = Malate semialdehyde dehydrogenase activity, reverse biosynthetic direction, NADP reduction
Description: (§1) Enzymatic assay: Aspartate or malate semialdehyde dehydrogenase activities were assayed in the reverse biosynthetic direction by following the reduction of NADP during the oxidation of aspartate or malate semialdehyde to 4-phospho-(L)-aspartate or 4-phospho-(L)-malate, respectively (Roberts et al., 2003). (L)-aspartate semialdehyde (or (L)-malate semialdehyde)+NADP+Pi→4-phospho-(L)-aspartate (or 4-phospho-(L)-malate)+NADPH
(§2) The assay mixture contained 200 mM Hepes (pH 9), 50 mM K2HPO4, 0.25 mM NADP. Reactions were started by adding (L)-aspartate semialdehyde or (L)-malate semialdehyde. (L)-Aspartate semialdehyde was added in the form of L-aspartic acid β-semialdehyde hydrate trifluoroacetate (maintained at pH3 to prevent degradation) which is a suitable substrate for enzymatic tests of homoserine dehydrogenase and aspartate semialdehyde dehysrogenase (Roberts et al., 2003). Unstable malate semialdehyde was produced freshly prior to the enzymatic tests by the deprotection of the stable malate semialdehyde derivative 2-[(4S)-2,2-dimethyl-5-oxo-1,3-dioxolan-4-yl]acetaldehyde (DMODA). […]
(§3) Enzymatic assays were carried out in 96-well flat bottomed microtiter plates in a final volume of 250 μL at 30° C. The reactions were followed by the characteristic absorption of NADPH at 340 nm in a microplate reader (BioRad 680XR).

[3] = Aspartate semialdehyde dehydrogenase activity, reverse biosynthetic direction, NADP reduction; conditions: His-tagged enzyme, pH 9, 30° C.
Description: as §1, §2, §3

[4] = Hydroxamate assay to verify phosphorylation of the substrate; conditions: 10 mM malate, 10 mM ATP, 30 min
Description: Hydroxamate assay: To verify phosphorylation of the substrate, i.e. formation of an acylphosphate anhydride, by wild-type or mutated aspartate kinases, the product of the kinase reaction was incubated with hydroxylamine to form the corresponding aspartate or malate hydroxamate derivative. The assay mixture contained 120 mM Hepes (pH 8), 200 mM KCl, 10 mM ATP, 200 mM hydroxylamine, 10 mM aspartate or malate, and appropriate amount of purified protein. The reaction was stopped after 30 min by addition of an equal volume of 1.7% (w/v) FeCl3 in 1 M hydrochloric acid. Formation of the hydroxamate-iron complex was verified by measuring its characteristic absorbance at 540 nm in a microtiter plate reader. Assay mixtures containing all components except for ATP were used as a blank.

[5] = Aspartate kinase activity, ADP production coupled to NADH oxidation; conditions: purified enzyme, 30° C., pH 7.5
Description: Enzymatic assay: Aspartate or malate kinase activities were assayed by coupling ADP production in the kinase reactions to NADH oxidation in the presence of phosphoenolpyruvate, pyruvate kinase, and lactate dehydrogenase.
Aspartate (or Malate) Kinase aspartate (or malate)+ATP→4-phospho-(L)-aspartate (or 4-phospho-(L)-malate)+ADP
Pyruvate Kinase ADP+phosphoenolpyruvate→ATP+pyruvate
Lactate Dehydrogenase pyruvate+NADH→NAD^++lactate
The assay mixture contained 50 mM Hepes (pH 7.5), 50 mM KCl, 5 mM MgCl2, 0.24 mM NADH, 0.96 mM ATP, 0.96 mM PEP, 9 μg/mL of lactate dehydrogenase (Sigma, L2500), 12.4 μg/mL pyruvate kinase (Sigma, P1506), and appropriate amounts of purified aspartate (malate) kinase. Reactions were started by adding 50 mM (L)-aspartate or (L)-malate. Enzymatic assays were carried out at 30° C. in 96-well flat bottomed microtiter plates in a final volume of 250 μL. The reactions were followed by the characteristic absorption of NADH at 340 nm in a microplate reader (BioRad 680XR).
Maximum activities for LysC and Hom3 on aspartate were 4.5 μmol/(min*mgprot) and 1.6 μmol/(min*mgprot), respectively. The Km value for aspartate was estimated with the method of Eadie and Hofstee by measuring initial reaction rates (v) at different substrate concentrations (c) and by extracting the slope of the v versus v/c plot. […]

[6] = 10 mM (L)-malate semialdehyde, 30° C.

B1: H39R N43H (SEQ ID NO: 81): M. sedula succinic semialdehyde reductase double mutant H39R N43H (protein, listed as Metallosphaera sedula)
chain: MKAAVLHTYKEPLSIEDVNISQPKAGEVKIKVKATGLCRSDVHVFEGKTPVPPPVVAGHEISGIVEEVGPGVTRVKPGDRVISAFIHPCGKCGNCVAGKENLCETFSQVRLKGVMPDGTSRLSKDGKEIRTFLGGGFAEYAIVGENALTRVPEDMDLEKVAVLGCAGLTGYGAISSSKIEPGDTVAVIGVGGVGLSTIQLLRASGAGRIIAVGTKKWKLDRAMELGATDVVNSKEIDPVKAIKEITGGGPQVVIEAGGNEDTIHMALDSVRIGGKVVLVGLPPATAMIPIRVASIVRGGIEVVGNYGGRPRVDMPKLLELVRQGRYDPSRLVTGRFRLEEINEAVKMLEEGEAIRSLIIP
- Affinity for malate semialdehyde compared to the wild type enzyme [1]: improved affinity

B2: Ms-SSR: succinic semialdehyde reductase from Metallosphaera sedula, wild type (protein, listed as Metallosphaera sedula)
chain: B1 chain with R39H, H43N
- Activity on malate semialdehyde (cofactor NADH) ([1]; 10 mM (L)-malate semialdehyde, 0.24 mM NADH, 30° C.): 4.9 μmol/(min*mg_prot)
- Activity on malate semialdehyde (cofactor NADPH) [1, 6]: 4.9 μmol/(min*mg_prot)

B3: YPR1: methylbutyraldehyde reductase from Saccharomyces cerevisiae (protein, listed as Saccharomyces cerevisiae)
chain: MPATLKNSSATLKLNTGASIPVLGFGTWRSVDNNGYHSVIAALKAGYRHIDAAAIYLNEEEVGRAIKDSGVPREEIFITTKLWGTEQRDPEAALNKSLKRLGLDYVDLYLMHWPVPLKTDRVTDGNVLCIPTLEDGTVDIDTKEWNFIKTWELMQELPKTGKTKAVGVSNFSINNIKELLESPNNKVVPATNQIEIHPLLPQDELIAFCKEKGIVVEAYSPFGSANAPLLKEQAIIDMAKKHGVEPAQLIISWSIQRGYVVLAKSVNPERIVSNFKIFTLPEDDFKTISNLSKVHGTKRVVDMKWGSFPIFQ
- Activity on malate semialdehyde (cofactor NADPH) [1, 6]: 0.19 μmol/(min*mg_prot)

B4: Asd: wild-type aspartate semialdehyde dehydrogenase of E. coli, His-tagged (protein, listed as Escherichia coli)
chain: MKNVGFIGWRGMVGSVLMQRMVEERDFDAIRPVFFSTSQLGQAAPSFGGTTGTLQDAFDLEALKALDIIVTCQGGDYTNEIYPKLRESGWQGYWIDAASSLRMKDDAIIILDPVNQDVITDGLNNGIRTFVGGNCTVSLMLMSLGGLFANDLVDWVSVATYQAASGGGARHMRELLTQMGHLYGHVADELATPSSAILDIERKVTTLTRSGELPVDNFGVPLAGSLIPWIDKQLDNGQSREEWKGQAETNKILNTSSVIPVDGLCVRVGALRCHSQAFTIKLKKDVSIPTVEELLAAHNPWAKVVPNDREITMRELTPAAVTGTLTTPVGRLRKLNMGPEFLSAFTVGDQLLWGAAEPLRRMLRQLA
modifications: His tag
notes: wild-type aspartate semialdehyde dehydrogenase of E. coli, His-tagged
- Activity on (L)-malate semialdehyde ([2]; His-tagged enzyme, pH 9, 30° C.): 0.01 μmol/(min*mgprot)
- Maximum specific activity, oxidation of (L)-aspartate semialdehyde to 4-phospho-(L)-aspartate [3]: 160 μmol/(min*mgprot)

B5: Asd E241Q T136N: double mutant of E. coli aspartate semialdehyde dehydrogenase Asd (protein, listed as Escherichia coli)
chain: B4 chain with T136N, E241Q
- Maximum specific activity ([2]; substrate not given, Example 5 tests malate semialdehyde dehydrogenase activity): 0.25 μmol/(min*mgprot)

B6: LysC: wild-type aspartate kinase III of E. coli encoded by the lysC gene (protein, listed as Escherichia coli)
chain: MSEIVVSKFGGTSVADFDAMNRSADIVLSDANVRLVVLSASAGITNLLVALAEGLEPGERFEKLDAIRNIQFAILERLRYPNVIREEIERLLENITVLAEAAALATSPALTDELVSHGELMSTLLFVEILRERDVQAQWFDVRKVMRTNDRFGRAEPDIAALAELAALQLLPRLNEGLVITQGFIGSENKGRTTTLGRGGSDYTAALLAEALHASRVDIWTDVPGIYTTDPRVVSAAKRIDEIAFAEAAEMATFGAKVLHPATLLPAVRSDIPVFVGSSKDPRAGGTLVCNKTENPPLFRALALRRNQTLLTLHSLNMLHSRGFLAEVFGILARHNISVDLITTSEVSVALTLDTTGSTSTGDTLLTQSLLMELSALCRVEVEEGLALVALIGNDLSKACGVGKEVFGVLEPFNIRMICYGASSHNLCFLVPGEDAEQVVQKLHSNLFE
- Phosphorylation of malate as verified by the hydroxamate assay [4]: not able to phosphorylate malate
- Maximum activity on aspartate [5]: 4.5 μmol/(min*mgprot)

B7: Hom3: wild-type aspartate kinase of Saccharomyces cerevisiae encoded by HOM3 (protein, listed as Saccharomyces cerevisiae)
chain: MPMDFQPTSSHSNWVVQKFGGTSVGKFPVQIVDDIVKHYSKPDGPNNNVAVVCSARSSYTKAEGTTSRLLKCCDLASQESEFQDIIEVIRQDHIDNADRFILNPALQAKLVDDTNKELELVKKYLNASKVLGEVSSRTVDLVMSCGEKLSCLFMTALCNDRGCKAKYVDLSHIVPSDFSASALDNSFYTFLVQALKEKLAPFVSAKERIVPVFTGFFGLVPTGLLNGVGRGYTDLCAALIAVAVNADELQVWKEVDGIFTADPRKVPEARLLDSVTPEEASELTYYGSEVIHPFTMEQVIRAKIPIRIKNVQNPLGNGTIIYPDNVAKKGESTPPHPPENLSSSFYEKRKRGATAITTKNDIFVINIHSNKKTLSHGFLAQIFTILDKYKLVVDLISTSEVHVSMALPIPDADSLKSLRQAEEKLRILGSVDITKKLSIVSLVGKHMKQYIGIAGTMFTTLAEEGINIEMISQGANEINISCVINESDSIKALQCIHAKLLSERTNTSNQFEHAIDERLEQLKRLGI
- Phosphorylation of malate as verified by the hydroxamate assay [4]: not able to phosphorylate malate
- Maximum activity on aspartate [5]: 1.6 μmol/(min*mgprot)

— patent US10358663B2, “Method of production of 2,4-dihydroxybutyric acid” (ADISSEO FRANCE S.A.S., priority 2010, dated 2019)
